Kd data for one molecule are collected here from paper PMC4728560, “TCTP contains a BH3-like domain, which instead of inhibiting, activates Bcl-xL” (Scientific Reports, 2016).

The target of the assay is T1, Bcl-xL, recombinant protein (human, UniProt Q07817-1 1-233).
T1 construct: Bcl-xL, human; also called wild type Bcl-xL; source: purified recombinant protein; host and details in Supplementary Information
The experiment in a line: ITC; peptide titrated into Bcl-xL in the cell; 30 °C, 50 mM ammonium bicarbonate pH 9; ITC200 calorimeter. The settings on record: both partners purified. (Isothermal titration calorimetry measures the heat released or taken up as one component is titrated into another.)

T1 sequence (Q07817 whole entry): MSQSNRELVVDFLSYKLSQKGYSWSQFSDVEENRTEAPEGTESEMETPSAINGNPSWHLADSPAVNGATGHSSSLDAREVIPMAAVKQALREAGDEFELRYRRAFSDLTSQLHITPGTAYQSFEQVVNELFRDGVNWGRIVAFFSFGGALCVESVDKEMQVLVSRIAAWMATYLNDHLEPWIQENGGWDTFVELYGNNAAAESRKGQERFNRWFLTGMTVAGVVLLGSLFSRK

Regarding QPPQDASTKKLSECIREIADGLCLEV [hybrid Bax/TCTP peptide (TCTP BH3 peptide containing the Bax h1 (P1) sub-region)], the Kd was 500 nM.

Broadly, the Kd is a measure of binding affinity in units of concentration.
